Laboratory results from paper PMC9482650, “Quantitative fragmentomics allow affinity mapping of interactomes” (Nature Communications, 2022).

What was measured:
Test in all cases: holdup assay
Set-up in all cases: key: below the threshold = too weak to quantify, mostly under pKd 3.1 to 4
SCRIB_1, Q14160 = molecular target: SCRIB_1, Q14160
GIPC2, Q8TF65 = molecular target: GIPC2, Q8TF65
PARD3B_1, Q8TEW8 = molecular target: T1, PARD3B_1, Q8TEW8
T1 sequence (Q8TEW8 196-299, limits assumed, looked up): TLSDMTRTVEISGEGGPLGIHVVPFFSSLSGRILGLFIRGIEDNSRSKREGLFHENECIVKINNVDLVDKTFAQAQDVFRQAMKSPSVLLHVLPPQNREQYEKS

FRMPD1, Q5SYB0 = molecular target: T2, FRMPD1, Q5SYB0
T2 sequence (Q5SYB0 52-145, limits assumed, looked up): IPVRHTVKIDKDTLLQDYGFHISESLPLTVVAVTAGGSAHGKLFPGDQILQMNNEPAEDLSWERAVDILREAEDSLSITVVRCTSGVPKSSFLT

DFNB31_2, Q9P202 = molecular target: T3, DFNB31_2, Q9P202
T3 sequence (Q9P202 274-371, limits assumed, looked up): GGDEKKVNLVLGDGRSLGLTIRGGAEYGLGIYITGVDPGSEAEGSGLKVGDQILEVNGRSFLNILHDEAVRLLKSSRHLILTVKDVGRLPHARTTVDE

DLG2_3, Q15700 = molecular target: DLG2_3, Q15700
MPDZ_10, O75970 = molecular target: T4, MPDZ_10, O75970
T4 sequence (O75970 1624-1722, limits assumed, looked up): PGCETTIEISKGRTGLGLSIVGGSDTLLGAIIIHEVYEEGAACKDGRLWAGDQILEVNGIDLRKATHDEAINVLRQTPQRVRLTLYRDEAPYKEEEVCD

DFNB31_1, Q9P202 = molecular target: T5, DFNB31_1, Q9P202
T5 sequence (Q9P202 135-233, limits assumed, looked up): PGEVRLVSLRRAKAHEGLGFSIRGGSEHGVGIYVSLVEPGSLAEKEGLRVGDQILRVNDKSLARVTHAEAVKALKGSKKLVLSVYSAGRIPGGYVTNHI

Inadl_5, Q8NI35 = molecular target: Inadl_5, Q8NI35
RADIL, Q96JH8 = molecular target: T6, RADIL, Q96JH8
T6 sequence (Q96JH8 971-1071, limits assumed, looked up): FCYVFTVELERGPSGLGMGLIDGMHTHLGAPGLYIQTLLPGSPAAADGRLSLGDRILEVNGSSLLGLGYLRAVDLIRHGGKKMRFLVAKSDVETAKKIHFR

GRASP, Q7Z6J2 = molecular target: GRASP, Q7Z6J2
Inadl_1, Q8NI35 = molecular target: Inadl_1, Q8NI35
NHERF3_1, Q5T2W1 = molecular target: T7, NHERF3_1, Q5T2W1
T7 sequence (Q5T2W1 4-100, limits assumed, looked up): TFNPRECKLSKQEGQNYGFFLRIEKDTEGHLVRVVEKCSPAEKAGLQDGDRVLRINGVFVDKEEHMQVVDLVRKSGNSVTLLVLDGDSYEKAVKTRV

LIN7A, O14910 = molecular target: T8, LIN7A, O14910
T8 sequence (O14910 103-200, limits assumed, looked up): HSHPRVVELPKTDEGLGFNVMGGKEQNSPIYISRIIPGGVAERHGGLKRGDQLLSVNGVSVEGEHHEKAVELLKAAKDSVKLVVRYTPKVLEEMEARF

IL16_3, Q14005 = molecular target: IL16_3, Q14005
FRMPD2_3, Q68DX3 = molecular target: FRMPD2_3, Q68DX3
Inadl_10, Q8NI35 = molecular target: Inadl_10, Q8NI35
GRID2IP_1, A4D2P6 = molecular target: GRID2IP_1, A4D2P6
CASK, O14936 = molecular target: CASK, O14936
MAGI2_2, Q86UL8 = molecular target: MAGI2_2, Q86UL8
DLG3_1, Q92796 = molecular target: T9, DLG3_1, Q92796
T9 sequence (Q92796 125-227, limits assumed, looked up): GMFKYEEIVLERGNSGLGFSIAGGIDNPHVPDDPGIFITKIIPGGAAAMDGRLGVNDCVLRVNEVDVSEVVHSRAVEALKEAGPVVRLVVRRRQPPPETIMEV

MPDZ_5, O75970 = molecular target: T10, MPDZ_5, O75970
T10 sequence (O75970 695-796, limits assumed, looked up): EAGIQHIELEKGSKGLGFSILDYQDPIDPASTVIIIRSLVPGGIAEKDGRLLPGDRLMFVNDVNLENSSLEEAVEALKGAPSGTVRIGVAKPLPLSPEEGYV

TJP2_1, Q9UDY2 = molecular target: TJP2_1, Q9UDY2
MAGI1_1, Q96QZ7 = molecular target: MAGI1_1, Q96QZ7
GRIP2_3, Q9C0E4 = molecular target: GRIP2_3, Q9C0E4
PDLIM1, O00151 = molecular target: PDLIM1, O00151
MAGI2_3, Q86UL8 = molecular target: MAGI2_3, Q86UL8
SCRIB_2, Q14160 = molecular target: SCRIB_2, Q14160
[1] = plain residues with an end cap or a label only (N-terminal biotin on a linker: ttds)
[2] = plain residues with an end cap or a label only (N-terminal biotin on a linker: ahx)

Measured: pKd

IL16_3, Q14005, sequence (Q14005 1107-1207): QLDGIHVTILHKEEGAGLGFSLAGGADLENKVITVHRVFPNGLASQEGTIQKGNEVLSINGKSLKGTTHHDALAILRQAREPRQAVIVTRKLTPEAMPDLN
FRMPD2_3, Q68DX3, sequence (Q68DX3 1073-1166): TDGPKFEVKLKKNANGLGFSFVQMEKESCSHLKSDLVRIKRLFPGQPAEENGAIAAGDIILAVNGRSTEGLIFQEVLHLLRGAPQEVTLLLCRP
Inadl_1, Q8NI35, sequence (Q8NI35 113-229): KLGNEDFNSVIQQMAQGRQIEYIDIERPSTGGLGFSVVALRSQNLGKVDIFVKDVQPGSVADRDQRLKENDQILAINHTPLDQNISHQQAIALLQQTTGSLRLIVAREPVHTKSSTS
CASK, O14936, sequence (O14936 487-570): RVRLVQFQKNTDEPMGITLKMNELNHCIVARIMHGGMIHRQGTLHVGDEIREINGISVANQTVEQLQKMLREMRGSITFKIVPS
MAGI2_3, Q86UL8, sequence (Q86UL8 600-682): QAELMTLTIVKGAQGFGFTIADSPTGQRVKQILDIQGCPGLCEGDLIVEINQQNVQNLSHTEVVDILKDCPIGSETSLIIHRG
GRIP2_3, Q9C0E4, sequence (Q9C0E4 238-339): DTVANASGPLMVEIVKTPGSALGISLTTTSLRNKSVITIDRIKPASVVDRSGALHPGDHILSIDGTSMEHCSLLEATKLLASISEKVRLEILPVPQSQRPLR
SCRIB_1, Q14160, sequence (Q14160 718-814): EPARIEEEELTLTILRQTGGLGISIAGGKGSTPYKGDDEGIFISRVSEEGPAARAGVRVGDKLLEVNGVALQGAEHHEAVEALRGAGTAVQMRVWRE
GRASP, Q7Z6J2, sequence (Q7Z6J2 96-193): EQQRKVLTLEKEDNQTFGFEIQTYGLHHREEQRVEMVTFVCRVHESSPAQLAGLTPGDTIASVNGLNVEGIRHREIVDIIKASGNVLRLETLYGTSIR
GRID2IP_1, A4D2P6, sequence (A4D2P6 1-87): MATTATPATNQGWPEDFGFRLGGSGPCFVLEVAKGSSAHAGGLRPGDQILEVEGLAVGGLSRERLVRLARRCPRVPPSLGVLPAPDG
TJP2_1, Q9UDY2, sequence (Q9UDY2 24-128): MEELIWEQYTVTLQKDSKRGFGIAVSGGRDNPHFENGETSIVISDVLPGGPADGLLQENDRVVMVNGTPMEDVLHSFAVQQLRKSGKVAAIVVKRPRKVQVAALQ
MAGI2_2, Q86UL8, sequence (Q86UL8 410-522): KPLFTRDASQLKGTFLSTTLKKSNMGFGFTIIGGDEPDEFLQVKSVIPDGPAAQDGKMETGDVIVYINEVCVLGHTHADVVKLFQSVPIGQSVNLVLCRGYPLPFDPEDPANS
Inadl_5, Q8NI35, sequence (Q8NI35 673-780): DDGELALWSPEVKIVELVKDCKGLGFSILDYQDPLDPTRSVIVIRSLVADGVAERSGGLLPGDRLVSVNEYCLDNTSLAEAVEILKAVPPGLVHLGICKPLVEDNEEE
MAGI1_1, Q96QZ7, sequence (Q96QZ7 1-106): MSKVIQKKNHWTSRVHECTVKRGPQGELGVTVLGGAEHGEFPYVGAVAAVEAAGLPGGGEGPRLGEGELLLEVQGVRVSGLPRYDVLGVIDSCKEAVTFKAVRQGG
SCRIB_2, Q14160, sequence (Q14160 857-960): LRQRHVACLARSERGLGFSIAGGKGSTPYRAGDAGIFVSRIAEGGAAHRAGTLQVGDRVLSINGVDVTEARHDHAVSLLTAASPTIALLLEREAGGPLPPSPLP
GIPC2, Q8TF65, sequence (Q8TF65 112-203): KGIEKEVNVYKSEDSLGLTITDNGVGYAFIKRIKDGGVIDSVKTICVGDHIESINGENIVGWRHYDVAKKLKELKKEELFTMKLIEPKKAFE
PDLIM1, O00151, sequence (O00151 1-87): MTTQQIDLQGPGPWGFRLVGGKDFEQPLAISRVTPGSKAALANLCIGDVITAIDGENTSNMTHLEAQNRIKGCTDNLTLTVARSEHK
Inadl_10, Q8NI35, sequence (Q8NI35 1673-1763): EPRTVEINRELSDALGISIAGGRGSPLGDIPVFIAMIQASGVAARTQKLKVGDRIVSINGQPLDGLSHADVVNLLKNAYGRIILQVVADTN

B1: ATP2B1, P20020 (peptide)
chain: SPLHSLETSL
4.02: PARD3B_1, Q8TEW8; [1]
3.5: MAGI2_3, Q86UL8; [1]
3.88: GIPC2, Q8TF65; [1]
4.07: DLG2_3, Q15700; [1]
4.22: DFNB31_1, Q9P202; [1] | GRASP, Q7Z6J2; [1]
5.36: SCRIB_1, Q14160; [1]
5.24: NHERF3_1, Q5T2W1; [1]
3.62: DLG3_1, Q92796; [1]
3.49: TJP2_1, Q9UDY2; [1]
3.69: Inadl_1, Q8NI35; [1]
below the threshold: FRMPD1, Q5SYB0; [1] | DFNB31_2, Q9P202; [1] | MPDZ_10, O75970; [1] | Inadl_5, Q8NI35; [1] | RADIL, Q96JH8; [1] | LIN7A, O14910; [1] | IL16_3, Q14005; [1] | FRMPD2_3, Q68DX3; [1] | Inadl_10, Q8NI35; [1] | GRID2IP_1, A4D2P6; [1] | CASK, O14936; [1] | MPDZ_5, O75970; [1] | MAGI1_1, Q96QZ7; [1] | GRIP2_3, Q9C0E4; [1]
3.86: MAGI2_2, Q86UL8; [1]
3.71: PDLIM1, O00151; [1]
4.27: SCRIB_2, Q14160; [1]

B2: ADRB2, P07550 (peptide)
chain: RNCSTNDSLL
3.69: MPDZ_10, O75970; [2]
3.77: PDLIM1, O00151; [2]
3.89: NHERF3_1, Q5T2W1; [2]
3.56: Inadl_10, Q8NI35; [2]
below the threshold: GIPC2, Q8TF65; [2] | FRMPD1, Q5SYB0; [2] | DFNB31_2, Q9P202; [2] | DLG2_3, Q15700; [2] | DFNB31_1, Q9P202; [2] | Inadl_5, Q8NI35; [2] | RADIL, Q96JH8; [2] | GRASP, Q7Z6J2; [2] | Inadl_1, Q8NI35; [2] | LIN7A, O14910; [2] | IL16_3, Q14005; [2] | FRMPD2_3, Q68DX3; [2] | GRID2IP_1, A4D2P6; [2] | CASK, O14936; [2] | MAGI2_2, Q86UL8; [2] | DLG3_1, Q92796; [2] | MPDZ_5, O75970; [2] | TJP2_1, Q9UDY2; [2] | MAGI1_1, Q96QZ7; [2] | GRIP2_3, Q9C0E4; [2] | MAGI2_3, Q86UL8; [2] | SCRIB_2, Q14160; [2]
3.75: PARD3B_1, Q8TEW8; [2]
3.58: SCRIB_1, Q14160; [2]

B3: NHERF3, Q5T2W1 (peptide)
chain: SSSNSEDTEM
below the threshold: SCRIB_1, Q14160; [2] | GIPC2, Q8TF65; [2] | PARD3B_1, Q8TEW8; [2] | FRMPD1, Q5SYB0; [2] | DFNB31_2, Q9P202; [2] | DLG2_3, Q15700; [2] | MPDZ_10, O75970; [2] | DFNB31_1, Q9P202; [2] | Inadl_5, Q8NI35; [2] | RADIL, Q96JH8; [2] | GRASP, Q7Z6J2; [2] | Inadl_1, Q8NI35; [2] | NHERF3_1, Q5T2W1; [2] | LIN7A, O14910; [2] | IL16_3, Q14005; [2] | FRMPD2_3, Q68DX3; [2] | Inadl_10, Q8NI35; [2] | GRID2IP_1, A4D2P6; [2] | CASK, O14936; [2] | MAGI2_2, Q86UL8; [2] | DLG3_1, Q92796; [2] | MPDZ_5, O75970; [2] | TJP2_1, Q9UDY2; [2] | MAGI1_1, Q96QZ7; [2] | GRIP2_3, Q9C0E4; [2] | PDLIM1, O00151; [2] | MAGI2_3, Q86UL8; [2] | SCRIB_2, Q14160; [2]

B4: DGKK, Q5KSL6 (peptide)
chain: DPLTPSRSQL
4.17: GRASP, Q7Z6J2; [1]
below the threshold: SCRIB_1, Q14160; [1] | GIPC2, Q8TF65; [1] | PARD3B_1, Q8TEW8; [1] | DFNB31_2, Q9P202; [1] | MPDZ_10, O75970; [1] | DFNB31_1, Q9P202; [1] | Inadl_5, Q8NI35; [1] | RADIL, Q96JH8; [1] | Inadl_1, Q8NI35; [1] | NHERF3_1, Q5T2W1; [1] | LIN7A, O14910; [1] | IL16_3, Q14005; [1] | FRMPD2_3, Q68DX3; [1] | Inadl_10, Q8NI35; [1] | GRID2IP_1, A4D2P6; [1] | CASK, O14936; [1] | MAGI2_2, Q86UL8; [1] | DLG3_1, Q92796; [1] | MPDZ_5, O75970; [1] | TJP2_1, Q9UDY2; [1] | MAGI1_1, Q96QZ7; [1] | GRIP2_3, Q9C0E4; [1] | PDLIM1, O00151; [1] | MAGI2_3, Q86UL8; [1] | SCRIB_2, Q14160; [1]
3.73: FRMPD1, Q5SYB0; [1] | DLG2_3, Q15700; [1]
